Where a chain is given by its changes, count along the chain named.
Legend:
Test in all cases: Phadia diagnostics and/or Western blot
[1] = target: T1, Dust mite allergen Der p 1 (dust mite (Dermatophagoides …, UniProt P08176 99-320))
T1 sequence (looked up): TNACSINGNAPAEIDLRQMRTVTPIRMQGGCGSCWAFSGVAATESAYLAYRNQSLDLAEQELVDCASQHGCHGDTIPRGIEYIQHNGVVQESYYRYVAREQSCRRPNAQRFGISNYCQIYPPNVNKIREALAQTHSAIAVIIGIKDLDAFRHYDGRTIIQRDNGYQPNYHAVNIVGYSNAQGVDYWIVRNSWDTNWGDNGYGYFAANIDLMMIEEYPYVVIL

[2] = target: T2, Cat allergen Fel d 1 (cat, UniProt P30438 23-92; P30440 18-109)
T2 sequence (looked up) 1: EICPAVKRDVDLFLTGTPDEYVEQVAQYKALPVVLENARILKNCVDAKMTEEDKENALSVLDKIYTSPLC
T2 sequence (looked up) 2: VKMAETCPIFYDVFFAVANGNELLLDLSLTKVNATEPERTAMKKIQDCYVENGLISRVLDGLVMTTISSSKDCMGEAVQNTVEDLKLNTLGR

[3] = target: T3, Aspergillus fumigatus allergen Asp f 1 (Aspergillus fumigatus, UniProt P67875 28-176)
T3 sequence: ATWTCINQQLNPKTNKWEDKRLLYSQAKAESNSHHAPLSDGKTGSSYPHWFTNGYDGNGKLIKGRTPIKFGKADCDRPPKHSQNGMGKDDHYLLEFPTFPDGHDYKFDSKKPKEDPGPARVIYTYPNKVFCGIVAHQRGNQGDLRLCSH

[4] = target: T4, Peanut allergen Ara h 6 (peanut, UniProt Q647G9 22-145)
T4 sequence (looked up): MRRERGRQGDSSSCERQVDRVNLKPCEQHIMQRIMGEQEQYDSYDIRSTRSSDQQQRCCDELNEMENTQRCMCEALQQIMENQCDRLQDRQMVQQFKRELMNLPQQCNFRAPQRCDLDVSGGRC

B1: Human IgE mAb 1C14 (antibody, V domains shown)
VH: QVQLQESGPGLVKPSQTLSLTCTVSGGSISSGGFFWGWIRQHPGRDLEWIGYIFYTGSTNYNPSLKNRVTLSVDTSKNHFSLNLTSVTVADTAVYYCARQGGVRGNYYFMDVWGKGTTVTVSS
VL: DIQMTQSPSSLSASVGDRVTITCRASQSISNYLNWYQQKPGKAPKLLIYAASRLQSGVPSRFSGSGSGTELTLTISSLQPEDFATYFCQQSYNTPYSFGQGTKVEIK
notes: Natural human IgE from a hybridoma
binding result [1]: binds

B2: Human IgE mAb 1B7 (antibody, V domains shown)
VH: EFQLQESGPGLVKPSETLSLNCSVSGGSISNNYWNWIRQPPGKGLEWIGYISYSGRTHYNPSLKSRVSISLHTSKNHFSLKLTSVAAADTAMYYCARESTYSYKLGDAFDIWGQGTMVTVSA
VL: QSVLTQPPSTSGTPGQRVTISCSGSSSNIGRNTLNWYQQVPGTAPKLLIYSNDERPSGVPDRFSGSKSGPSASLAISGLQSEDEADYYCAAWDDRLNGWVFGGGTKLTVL
binding result [2]: binds

B3: Human IgE mAb 14H4 (antibody, V domains shown)
VH: EVQLVQSGAEVKRAGESLKISCKGSGYPFATYWVGWVRQMPGKGLEWMTIIYPEDSDTRYSPSFQDHVTISADKSLSTAYLQWSSLKASDTAMYYCARVSRYYYDSRSYYPDAFDIWGQGTMVTVSS
VL: SYELTQPPSVSVSPGQTASITCSGDKLGDKYVCWYQQKPGRSPVLVVHQDTKRPSGIPERFSGSNSGDTATLTISGTQAMDEADYYCQAWDSTIGVFGPGTRVTVL
notes: as for B1
binding result [3]: binds

B4: Human IgE mAb 1A8 (antibody, V domains shown)
VH: QLQLQESGPGLVKPSETLSLTCSVSDDSISTPSYFWTWIRQPPGKGLEWIASIYYTGTTYYNPSLKSRVTLSVDTPKRQFFLRLSSVTAADTAVYYCARYLDYVWLRAFDVWGQGAMVTVSS
VL: EIVLTQSPATLSLSPGERATLSCRASPSVGRFLAWYQQKPGQAPRLLIYDASQRATDIPARFSASGSGTDFTLTIDSLEPEDFAIYYCQHRSNWPVTFGGGTRVEIK
notes: as for B1
binding result [4]: binds

B5: Human IgE mAb 8F3 (antibody, V domains shown)
VH: QLQLQESGPGLVKPSETLSLTCTVSDASIDTPSYFWSWIRQPPGKGLEWIGSIYYTGNKYSNPSLKSRVTMSVDTPKRQFSLRLSSVTAADTAVYYCARYVDYVWLRAFDIWGQGTRVTVSS
VL: B4 VL with V29A, K39R, Q53K, I58T, A64G, T72N, D76A, I85V, V96L, R103K
notes: as for B1
binding result [4]: binds

From patent publication US20190353661A1 (VANDERBILT UNIVERSITY, published 2019)
